Data reported in the supplement of paper PMC6757056.
± gives the standard deviation of the averaged measurements.

B1: library; a variant is named by its letters at N, in order (parent)
chain: GCUGUCACCGGUGUAUUACCCUAGUGGUCGACCGGUCUGAUGAGUCUNNNNNNAGACGAAACAGC

Tests used:
hypoxanthine [1] = variants of: B1; assay: FACS-Seq fitted mean relative fluorescence mCherry/BFP without ligand (log10 relative fluorescence); ligand: hypoxanthine (xanthine aptamer); higher = higher reporter protein expression; details: HEK293T, ligand present: no
Procedure, shortened: (§1)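 To measure fluorescence, a normal distribution was fitted to read counts across sorted bins. The reporter libraries were HEK293T cells transduced by lentivirus with mCherry under ribozyme-switch control and an EF1α-BFP marker, enriched and then kept with or without ligand for 48 h. Sorting used 6 mCherry/BFP bins, and bin genomic DNA was PCR-amplified and sequenced on MiSeq. Fitted means of log10(mCherry/BFP) were scaled to five spiked-in control ribozymes.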

hypoxanthine [2] = variants of: B1; assay: normalized RNA/DNA level with ligand (relative to sTRSVctl = 100) (log10 (% of sTRSVctl)); ligand: hypoxanthine (xanthine aptamer); higher = less ribozyme self-cleavage, higher mRNA level; details: ligand concentration (+) RNA-Seq: 5 mM, HEK293T, reporter: mCherry (pCS4076), ligand present: yes
Procedure, shortened: (§2)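 Total RNA, extracted with EDTA 72 h after HEK293T cells were transfected with 4 µg per 6-well well of reporter-linked ribozyme switch library plasmids, was reverse-transcribed, amplified, barcoded and sequenced. Ligand, if used, was added 1 h before transfection. RNA level was derived from RNA reads divided by DNA reads and normalized to a spiked-in non-cleaving sequence or to the top sequences. This was multiplied by 100 and log10-transformed, with the top set of 25 sequences and a ≥100 DNA read minimum.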

hypoxanthine [3] = variants of: B1; assay: normalized RNA/DNA level without ligand (relative to sTRSVctl = 100) (log10 (% of sTRSVctl)); ligand: hypoxanthine (xanthine aptamer); higher = less ribozyme self-cleavage, higher mRNA level; details: HEK293T, reporter: mCherry (pCS4076), ligand present: no
Procedure, shortened: as §2

hypoxanthine [4] = variants of: B1; assay: FACS-Seq fitted mean relative fluorescence mCherry/BFP with ligand (log10 relative fluorescence); ligand: hypoxanthine (xanthine aptamer); ligand concentration (+) FACS-Seq: 5 mM; higher = higher reporter protein expression; details: HEK293T, ligand present: yes
Procedure, shortened: as §1

Variant	FACS-Seq fitted mean (log10) (hypoxanthine [1])	normalized RNA/DNA level with ligand (log10) (hypoxanthine [2])	normalized RNA/DNA level without ligand (log10) (hypoxanthine [3])	FACS-Seq fitted mean (log10) (hypoxanthine [4])
AGCAGC	0.426 ± 0.013	1.99 ± 0.058	1.74 ± 0.049	0.54 ± 0.14
AGCAGA	0.386 ± 0.043	1.879 ± 0.01	1.41 ± 0.027	0.623 ± 0.019
AGAGUA	0.5286 ± 0.0017	1.892 ± 0.0036	1.7 ± 0.034	0.675 ± 0.034
AGACUC	0.486 ± 0.012	1.944 ± 0.016	1.94 ± 0.034	0.646 ± 0.01
AGACUU	0.58 ± 0.039	1.946 ± 0.008	1.9 ± 0.021	0.5558 ± 0.0047
CGACGG	0.267 ± 0.083	1.83 ± 0.035	1.413 ± 0.0057	0.596 ± 0.078
CGACGC	-0.246 ± 0.0073	1.919 ± 0.0071	1.87 ± 0.019	-0.157 ± 0.067
GGAUUG	0.023 ± 0.012	1.857 ± 0.017	1.42 ± 0.059	0.4602 ± 0.0025
GGAGGA	-0.168 ± 0.034	1.934 ± 0.0025	1.64 ± 0.078	0.231 ± 0.0056
GGAGGU	0.54 ± 0.019	1.923 ± 0.013	1.779 ± 0.01	0.48 ± 0.021
GGAUAG	0.188 ± 0.013	1.83 ± 0.028	1.39 ± 0.049	0.508 ± 0.041
GGAUAA	0.5354 ± 0.0025	1.9 ± 0.025	1.74 ± 0.024	0.552 ± 0.016
GGAUAC	0.616 ± 0.019	1.93 ± 0.026	1.73 ± 0.042	0.623 ± 0.084
UGCCAC	0.327 ± 0.019	1.94 ± 0.031	1.89 ± 0.02	0.42 ± 0.01
UGCCAG	0.421 ± 0.0089	1.9 ± 0.034	1.727 ± 0.0076	0.288 ± 0.093
CGAAUA	0.459 ± 0.085	1.9 ± 0.037	1.677 ± 0.0017	0.656 ± 0.027
GGAUCG	0.142 ± 0.037	1.95 ± 0.053	1.6404 ± 0.0014	0.517 ± 0.05
CGCCAG	0.462 ± 0.027	1.99 ± 0.051	1.84 ± 0.12	0.537 ± 0.0082
UGAUGA	0.599 ± 0.053	1.906 ± 0.0054	1.58 ± 0.035	0.575 ± 0.14
CGCAAA	0.57 ± 0.013	1.897 ± 0.0028	1.7 ± 0.022	0.491 ± 0.024
GGAACG	0.254 ± 0.083	1.88 ± 0.072	1.503 ± 0.015	0.597 ± 0.098
CGAUGG	0.217 ± 0.024	1.89 ± 0.029	1.42 ± 0.087	0.628 ± 0.045
UGAUUC	0.59 ± 0.061	1.993 ± 0.0057	1.977 ± 0.011	0.627 ± 0.06
UGAUUU	0.485 ± 0.022	1.945 ± 0.0024	1.924 ± 0.012	0.6805 ± 0.0064

Variant	FACS-Seq fitted mean (log10) (hypoxanthine [1])	normalized RNA/DNA level with ligand (log10) (hypoxanthine [2])	normalized RNA/DNA level without ligand (log10) (hypoxanthine [3])	FACS-Seq fitted mean (log10) (hypoxanthine [4])
AGAUUC	0.691 ± 0.017	1.92 ± 0.051	1.92 ± 0.037	0.707 ± 0.069
AGCCGG	-0.0509 ± 0.035	1.91 ± 0.012	1.67 ± 0.02	0.305 ± 0.055
AGCCGA	0.399 ± 0.018	1.925 ± 0.0069	1.68 ± 0.027	0.547 ± 0.036
CGAGCA	0.378 ± 0.011	1.942 ± 0.0082	1.716 ± 0.012	0.543 ± 0.087
GGACAA	0.0221 ± 0.17	1.89 ± 0.02	1.76 ± 0.028	0.0902 ± 0.07
GGACAC	0.562 ± 0.091	1.9 ± 0.097	1.71 ± 0.022	0.59 ± 0.014
CGAGAA	0.492 ± 0.014	1.907 ± 0.0062	1.58 ± 0.0075	0.65 ± 0.015
CGAGAG	0.304 ± 0.055	1.9 ± 0.078	1.71 ± 0.032	0.258 ± 0.014
UGAAGA	0.306 ± 0.01	1.896 ± 0.015	1.55 ± 0.025	0.576 ± 0.08
UGAAGU	0.226 ± 0.04	1.87 ± 0.037	1.555 ± 0.012	0.496 ± 0.012
UGAUCG	0.52543 ± 0.00029	1.93 ± 0.02	1.81 ± 0.025	0.589 ± 0.045
UGACUA	0.629 ± 0.091	1.953 ± 0.017	1.86 ± 0.029	0.141 ± 0.079
UGACUC	0.621 ± 0.043	2.01 ± 0.036	1.97 ± 0.033	0.678 ± 0.044
GGAUGA	0.427 ± 0.085	1.89 ± 0.035	1.618 ± 0.0099	0.633 ± 0.029
GGAUGG	0.131 ± 0.02	1.85 ± 0.027	1.33 ± 0.034	0.472 ± 0.035
GGAUGC	-0.0215 ± 0.024	1.85 ± 0.066	1.47 ± 0.075	0.483 ± 0.029
GGACUG	0.544 ± 0.086	1.888 ± 0.012	1.58 ± 0.041	0.601 ± 0.1
CGAGUC	0.0141 ± 0.11	1.958 ± 0.016	1.91 ± 0.094	0.106 ± 0.053
CGAGUU	0.866 ± 0.02	2 ± 0.039	1.834 ± 0.015	0.833 ± 0.11
AGAGGA	0.5707 ± 0.0052	1.892 ± 0.016	1.6297 ± 0.00023	0.701 ± 0.028
AGAGGU	0.557 ± 0.061	1.9 ± 0.035	1.52 ± 0.032	0.802 ± 0.07
UGAUAU	0.0888 ± 0.12	1.96 ± 0.028	1.776 ± 0.016	0.0923 ± 0.28
UGCCCA	0.234 ± 0.013	1.944 ± 0.002	1.92 ± 0.043	-0.0574 ± 0.058
UGACGU	-0.0405 ± 0.16	1.91 ± 0.021	1.57 ± 0.064	0.226 ± 0.05

Variant	FACS-Seq fitted mean (log10) (hypoxanthine [1])	normalized RNA/DNA level with ligand (log10) (hypoxanthine [2])	normalized RNA/DNA level without ligand (log10) (hypoxanthine [3])	FACS-Seq fitted mean (log10) (hypoxanthine [4])
UGACGG	0.484 ± 0.018	1.9 ± 0.022	1.486 ± 0.01	0.646 ± 0.032
UGACGA	0.285 ± 0.037	1.94 ± 0.023	1.581 ± 0.0051	0.593 ± 0.023
AGCCAA	0.57 ± 0.1	1.888 ± 0.017	1.8 ± 0.028	0.566 ± 0.067
AGCCAG	0.512 ± 0.025	1.89 ± 0.024	1.591 ± 0.007	0.71 ± 0.041
AGCCAU	-0.282 ± 0.012	1.92 ± 0.052	1.78 ± 0.027	0.15 ± 0.033
AGAGAG	0.482 ± 0.014	1.75 ± 0.036	1.32 ± 0.069	0.443 ± 0.038
AGAGAA	0.479 ± 0.04	1.882 ± 0.0051	1.69 ± 0.047	0.467 ± 0.0095
AGAGAU	0.123 ± 0.09	1.85 ± 0.052	1.731 ± 0.0098	-0.481 ± 0.049
GGCAGA	0.082 ± 0.022	1.921 ± 0.0091	1.51 ± 0.065	0.449 ± 0.062
GGCAGC	0.306 ± 0.06	1.921 ± 0.012	1.603 ± 0.0027	0.651 ± 0.043
GGCAGU	0.196 ± 0.14	1.98 ± 0.04	1.85 ± 0.046	0.205 ± 0.0051
GGCAAU	-0.272 ± 0.047	1.92 ± 0.04	1.86 ± 0.024	-0.0445 ± 0.018
GGCAAG	0.564 ± 0.072	1.88 ± 0.028	1.47 ± 0.022	0.712 ± 0.075
GGCAAA	-0.106 ± 0.017	1.9638 ± 0.0011	1.83 ± 0.037	-0.0498 ± 0.0022
GGCAAC	-0.242 ± 0.05	1.947 ± 0.0067	1.86 ± 0.024	-0.0947 ± 0.011
AGCCCA	0.0335 ± 0.1	1.923 ± 0.018	1.88 ± 0.025	-0.145 ± 0.064
AGCCCG	-0.024 ± 0.027	1.956 ± 0.0061	1.61 ± 0.087	0.388 ± 0.038
AGACCC	0.552 ± 0.035	1.94 ± 0.0097	1.92 ± 0.02	0.516 ± 0.11
UGCCGG	-0.14 ± 0.0069	1.938 ± 0.0072	1.71 ± 0.068	-0.119 ± 0.14
CGAAGG	0.0138 ± 0.042	1.806 ± 0.015	1.4 ± 0.13	0.39 ± 0.041
CGAAGA	0.445 ± 0.018	1.97 ± 0.061	1.72 ± 0.049	0.65 ± 0.062
AGCAUA	0.318 ± 0.075	1.9 ± 0.044	1.82 ± 0.02	0.286 ± 0.19
AGCAUU	-0.328 ± 0.0053	1.92 ± 0.065	1.86 ± 0.057	-0.19 ± 0.0097
AGCAUG	0.201 ± 0.012	1.87 ± 0.079	1.4892 ± 0.001	-0.275 ± 0.19
